# Test results published in publication PMC8982406.
# Where a chain is given by its changes, count along the chain named. In names and notes the source's numbering stands.
# T1: full-length RLIM protein (wild type; mapping and mutation co-IPs), Q9NVW2
# T1 chain: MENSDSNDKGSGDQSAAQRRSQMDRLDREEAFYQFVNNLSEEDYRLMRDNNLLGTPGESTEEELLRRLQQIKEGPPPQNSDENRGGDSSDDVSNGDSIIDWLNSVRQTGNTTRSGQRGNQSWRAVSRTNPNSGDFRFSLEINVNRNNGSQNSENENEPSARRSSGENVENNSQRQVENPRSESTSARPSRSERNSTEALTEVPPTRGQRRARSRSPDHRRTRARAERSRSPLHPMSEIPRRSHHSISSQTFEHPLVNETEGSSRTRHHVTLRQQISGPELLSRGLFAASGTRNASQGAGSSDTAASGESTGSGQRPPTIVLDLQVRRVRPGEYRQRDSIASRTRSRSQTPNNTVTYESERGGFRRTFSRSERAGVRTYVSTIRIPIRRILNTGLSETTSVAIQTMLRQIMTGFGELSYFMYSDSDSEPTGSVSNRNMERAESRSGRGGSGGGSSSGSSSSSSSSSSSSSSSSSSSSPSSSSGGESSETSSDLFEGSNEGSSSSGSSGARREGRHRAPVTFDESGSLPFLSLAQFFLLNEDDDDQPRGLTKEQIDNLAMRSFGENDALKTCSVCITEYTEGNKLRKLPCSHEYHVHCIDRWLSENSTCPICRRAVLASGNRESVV
# T2: ZC4H2 (wild type; mapping and mutation co-IPs), Q9NQZ6
# T2 chain: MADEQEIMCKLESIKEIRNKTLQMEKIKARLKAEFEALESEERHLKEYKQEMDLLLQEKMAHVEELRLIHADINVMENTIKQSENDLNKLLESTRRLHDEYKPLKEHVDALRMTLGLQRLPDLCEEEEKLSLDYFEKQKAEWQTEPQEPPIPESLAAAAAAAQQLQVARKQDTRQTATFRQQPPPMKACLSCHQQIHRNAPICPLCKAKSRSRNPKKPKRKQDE
# B1: ZC4H2 (wild type; mapping and mutation co-IPs), Q9NQZ6 A200V (protein)
# chain: T2 chain with A200V
# B2: ZC4H2 (wild type; mapping and mutation co-IPs), Q9NQZ6 R213W (protein)
# chain: T2 chain with R213W
# B3: ZC4H2 (wild type; mapping and mutation co-IPs), Q9NQZ6 V63L (protein)
# chain: T2 chain with V63L
# B4: ZC4H2 (wild type; mapping and mutation co-IPs), Q9NQZ6 R198Q (protein)
# chain: T2 chain with R198Q
# B5: full-length RLIM protein (wild type; mapping and mutation co-IPs), Q9NVW2 R599C (protein)
# chain: T1 chain with R599C
# B6: full-length RLIM protein (wild type; mapping and mutation co-IPs), Q9NVW2 R611C (protein)
# chain: T1 chain with R611C
# B7: full-length RLIM protein (wild type; mapping and mutation co-IPs), Q9NVW2 P587R (protein)
# chain: T1 chain with P587R
# B8: full-length RLIM protein (wild type; mapping and mutation co-IPs), Q9NVW2 D598N (protein)
# chain: T1 chain with D598N
# B9: full-length RLIM protein (wild type; mapping and mutation co-IPs), Q9NVW2 R365C (protein)
# chain: T1 chain with R365C
# B10: full-length RLIM protein (wild type; mapping and mutation co-IPs), Q9NVW2 R387C (protein)
# chain: T1 chain with R387C
# B11: full-length RLIM protein (wild type; mapping and mutation co-IPs), Q9NVW2 P77L (protein)
# chain: T1 chain with P77L
# B12: full-length RLIM protein (wild type; mapping and mutation co-IPs), Q9NVW2 Y356C (protein)
# chain: T1 chain with Y356C
# Target: T1, full-length RLIM protein (wild type; …)
# Assay: co-IP (IP: FLAG, IB: myc), blot quantification
# Conditions: chain shown with the change; ZC4H2-myc + RLIM-FLAG, MG132 +; parent: 1.00
row,Molecule,ratio to parent
1,B1,0.18
2,B2,0.19
3,B3,1.2
4,B4,0.15

# Target: T2, ZC4H2 (wild type; mapping and mutation …)
# Assay: co-IP (IP: FLAG, IB: myc), blot quantification
# Conditions: chain shown with the change; hRLIM-myc + ZC4H2-FLAG, MG132 +, HEK293 cells; parent: 1.00
row,Molecule,ratio to parent
1,B5,0.65
2,B6,0.17
3,B7,0.72
4,B8,0.23
5,B9,1.02
6,B10,0.18
7,B11,0.95
8,B12,0.91

# Target: full-length RLIM protein (wild type; mapping and mutation co-IPs) (UniProt Q9NVW2)
# Assay: co-IP (IP: FLAG, IB: myc), blot quantification
# Conditions: ZC4H2-myc + RLIM-FLAG, MG132 +; parent: 1.00
row,Molecule,ratio to parent
1,ZC4H2 (wild type; mapping and mutation co-IPs) (from UniProt Q9NQZ6) A201S,0.13
